# Results as given in US20220298260A1 (MYTHIC THERAPEUTICS, published 2022).
# B1: MYT2244 (antibody, V domains shown)
# VH: EVQLVESGGGLVQPGGSLRLSCAASGFNIRTQSIHWVRQAPGKGLEWIGDIFPIDGITHYADSVKGRFTISADTSKNTAYLQMNSLRAEDTAVYYCARGSWSWPSGMDYYLDYWGQGTLVTVSS
# VL: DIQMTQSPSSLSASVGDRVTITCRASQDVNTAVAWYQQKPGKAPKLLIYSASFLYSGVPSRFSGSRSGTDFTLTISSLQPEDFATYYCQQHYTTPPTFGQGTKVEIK
# notes: IgG
# B2: MYT2259 (antibody, V domains shown)
# VH: EVQLVESGGGLVQPGGSLRLSCAASGFNIRTQSIHWVRQAPGKGLEWIGDIFPIDGITDYADSVKGRFTISADTSKNTAYLQMNSLRAEDTAVYYCARGSWSWHSGMDYYLDYWGQGTLVTVSS
# VL: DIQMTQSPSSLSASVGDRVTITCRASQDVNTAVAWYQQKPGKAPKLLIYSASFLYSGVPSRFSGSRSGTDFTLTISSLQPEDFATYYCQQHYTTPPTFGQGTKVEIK
# notes: IgG
# B3: MYT2254 (antibody, V domains shown)
# VH: EVQLVESGGGLVQPGGSLRLSCAASGFNIRTQSIHWVRQAPGKGLEWIGDIFPIDGITDYADSVKGRFTISADTSKNTAYLQMNSLRAEDTAVYYCARHSWSWPSGMDYYLDYWGQGTLVTVSS
# VL: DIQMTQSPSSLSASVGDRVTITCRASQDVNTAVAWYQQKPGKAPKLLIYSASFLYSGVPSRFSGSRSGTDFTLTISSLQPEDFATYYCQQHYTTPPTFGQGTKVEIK
# notes: IgG
# B4: MYT2261 (antibody, V domains shown)
# VH: EVQLVESGGGLVQPGGSLRLSCAASGFNIRTQSIHWVRQAPGKGLEWIGDIFPIDGITDYADSVKGRFTISADTSKNTAYLQMNSLRAEDTAVYYCARGSWSWPSHMDYYLDYWGQGTLVTVSS
# VL: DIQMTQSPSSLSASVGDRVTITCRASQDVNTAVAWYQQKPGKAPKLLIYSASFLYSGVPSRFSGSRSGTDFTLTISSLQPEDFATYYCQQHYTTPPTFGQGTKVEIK
# notes: IgG
# B5: MYT2252 (antibody, V domains shown)
# VH: EVQLVESGGGLVQPGGSLRLSCAASGFNIRTQSIHWVRQAPGKGLEWIGDIFPIDGITDYADSVKGRFTISADTSKNTAYLQMNSLRAEDTAVYYCHRGSWSWPSGMDYYLDYWGQGTLVTVSS
# VL: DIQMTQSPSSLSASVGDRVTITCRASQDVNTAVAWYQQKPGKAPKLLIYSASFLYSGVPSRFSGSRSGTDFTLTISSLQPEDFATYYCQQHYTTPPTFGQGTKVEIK
# notes: IgG
# B6: MYT0613 (antibody, V domains shown)
# VH: QVQLVQSGAEVVKPGASVKISCKASGYTFTGYFMNWVKQSPGQSLEWIGRIHHYDGDTFYNQKFQGKATLTVDKSSNTAHMELLSLTSEDFAVYYCTRYDGSRAMDYWGQGTTVTVSS
# VL: DIVLTQSPLSLAVSLGQPAIISCKASQSVSFAGTSLMHWYHQKPGQQPRLLIYRASNLEAGVPDRFSGSGSKTDFTLTISPVEAEDAATYYCQQSREYPYTFGGGTKLEIK
# notes: IgG
# B7: MYT0634 (antibody, V domains shown)
# VH: QVQLVQSGAEVVKPGASVKISCKASGYTFTGYFMNWVKQSPGQSLEWIGRIHPYDGDTFYNQKFQGKATLTVDKSSNTAHMELLSLTSEDFAVYYCTRYDGSRHMDYWGQGTTVTVSS
# VL: DIVLTQSPLSLAVSLGQPAIISCKASQSVSFAGTSLMHWYHQKPGQQPRLLIYRASNLEAGVPDRFSGSGSKTDFTLTISPVEAEDAATYYCQQSREYPYTFGGGTKLEIK
# notes: IgG
# B8: MYT0631 (antibody, V domains shown)
# VH: QVQLVQSGAEVVKPGASVKISCKASGYTFTGYFMNWVKQSPGQSLEWIGRIHPYDGDTFYNQKFQGKATLTVDKSSNTAHMELLSLTSEDFAVYYCTRYDHSRAMDYWGQGTTVTVSS
# VL: DIVLTQSPLSLAVSLGQPAIISCKASQSVSFAGTSLMHWYHQKPGQQPRLLIYRASNLEAGVPDRFSGSGSKTDFTLTISPVEAEDAATYYCQQSREYPYTFGGGTKLEIK
# notes: IgG
# B9: MYT4532 (antibody, V domains shown)
# VH: EVQLVESGGGVVQPGRSLRLSCSASGFTFSGYGLSWVRQAPGKGLEWVAMISSGGSYTYYADSVKGRFAISRDNAKNTLFLQMDSLRPEDTGVYFCARHGDDPAWFAYWGQGTPVTVSS
# VL: DIQLTQSPSSLSASVGDRVTITCSVSSSISSNNLHWYQQKPGKAPKPWIYGTSHLASGVPSRFSGSGSGTDYTFTISSLQPEDIATYYCQQWSSYPYMYTFGQGTKVEIK
# notes: IgG
# B10: MYT4545 (antibody, V domains shown)
# VH: EVQLVESGGGVVQPGRSLRLSCSASGFTFSGYGLSWVRQAPGKGLEWVAMISSGGSYTYYADSVKGRFAISRDNAKNTLFLQMDSLRPEDTGVYFCARHGDDPAWFAYWGQGTPVTVSS
# VL: DIQLTQSPSSLSASVGDRVTITCSVSSSISSNNLHWYQQKPGKAPKPWIYGTSNLASGVPSRFSGSGSGTDYTFTISSLQPEDIATYYCQQWSSYPYMHTFGQGTKVEIK
# notes: IgG
# B11: MYT4535 (antibody, V domains shown)
# VH: EVQLVESGGGVVQPGRSLRLSCSASGFTFSGYGLSWVRQAPGKGLEWVAMISSGGSYTYYADSVKGRFAISRDNAKNTLFLQMDSLRPEDTGVYFCARHGDDPAWFAYWGQGTPVTVSS
# VL: DIQLTQSPSSLSASVGDRVTITCSVSSSISSNNLHWYQQKPGKAPKPWIYGTSNLAHGVPSRFSGSGSGTDYTFTISSLQPEDIATYYCQQWSSYPYMYTFGQGTKVEIK
# notes: IgG
# B12: MYT4534 (antibody, V domains shown)
# VH: EVQLVESGGGVVQPGRSLRLSCSASGFTFSGYGLSWVRQAPGKGLEWVAMISSGGSYTYYADSVKGRFAISRDNAKNTLFLQMDSLRPEDTGVYFCARHGDDPAWFAYWGQGTPVTVSS
# VL: DIQLTQSPSSLSASVGDRVTITCSVSSSISSNNLHWYQQKPGKAPKPWIYGTSNLHSGVPSRFSGSGSGTDYTFTISSLQPEDIATYYCQQWSSYPYMYTFGQGTKVEIK
# notes: IgG
# B13: MYT4539 (antibody, V domains shown)
# VH: EVQLVESGGGVVQPGRSLRLSCSASGFTFSGYGLSWVRQAPGKGLEWVAMISSGGSYTYYADSVKGRFAISRDNAKNTLFLQMDSLRPEDTGVYFCARHGDDPAWFAYWGQGTPVTVSS
# VL: DIQLTQSPSSLSASVGDRVTITCSVSSSISSNNLHWYQQKPGKAPKPWIYGTSNLASGVPSRFSGSGSGTDYTFTISSLQPEDIATYYCQQWHSYPYMYTFGQGTKVEIK
# notes: IgG
# B14: MYT4538 (antibody, V domains shown)
# VH: EVQLVESGGGVVQPGRSLRLSCSASGFTFSGYGLSWVRQAPGKGLEWVAMISSGGSYTYYADSVKGRFAISRDNAKNTLFLQMDSLRPEDTGVYFCARHGDDPAWFAYWGQGTPVTVSS
# VL: DIQLTQSPSSLSASVGDRVTITCSVSSSISSNNLHWYQQKPGKAPKPWIYGTSNLASGVPSRFSGSGSGTDYTFTISSLQPEDIATYYCQQHSSYPYMYTFGQGTKVEIK
# notes: IgG
# B15: MYT4541 (antibody, V domains shown)
# VH: EVQLVESGGGVVQPGRSLRLSCSASGFTFSGYGLSWVRQAPGKGLEWVAMISSGGSYTYYADSVKGRFAISRDNAKNTLFLQMDSLRPEDTGVYFCARHGDDPAWFAYWGQGTPVTVSS
# VL: DIQLTQSPSSLSASVGDRVTITCSVSSSISSNNLHWYQQKPGKAPKPWIYGTSNLASGVPSRFSGSGSGTDYTFTISSLQPEDIATYYCQQWSSHPYMYTFGQGTKVEIK
# notes: IgG
# B16: MYT4533 (antibody, V domains shown)
# VH: EVQLVESGGGVVQPGRSLRLSCSASGFTFSGYGLSWVRQAPGKGLEWVAMISSGGSYTYYADSVKGRFAISRDNAKNTLFLQMDSLRPEDTGVYFCARHGDDPAWFAYWGQGTPVTVSS
# VL: DIQLTQSPSSLSASVGDRVTITCSVSSSISSNNLHWYQQKPGKAPKPWIYGTSNHASGVPSRFSGSGSGTDYTFTISSLQPEDIATYYCQQWSSYPYMYTFGQGTKVEIK
# notes: IgG
# B17: MYT4542 (antibody, V domains shown)
# VH: EVQLVESGGGVVQPGRSLRLSCSASGFTFSGYGLSWVRQAPGKGLEWVAMISSGGSYTYYADSVKGRFAISRDNAKNTLFLQMDSLRPEDTGVYFCARHGDDPAWFAYWGQGTPVTVSS
# VL: DIQLTQSPSSLSASVGDRVTITCSVSSSISSNNLHWYQQKPGKAPKPWIYGTSNLASGVPSRFSGSGSGTDYTFTISSLQPEDIATYYCQQWSSYHYMYTFGQGTKVEIK
# notes: IgG
# B18: MYT4540 (antibody, V domains shown)
# VH: EVQLVESGGGVVQPGRSLRLSCSASGFTFSGYGLSWVRQAPGKGLEWVAMISSGGSYTYYADSVKGRFAISRDNAKNTLFLQMDSLRPEDTGVYFCARHGDDPAWFAYWGQGTPVTVSS
# VL: DIQLTQSPSSLSASVGDRVTITCSVSSSISSNNLHWYQQKPGKAPKPWIYGTSNLASGVPSRFSGSGSGTDYTFTISSLQPEDIATYYCQQWSHYPYMYTFGQGTKVEIK
# notes: IgG
# B19: MYT4543 (antibody, V domains shown)
# VH: EVQLVESGGGVVQPGRSLRLSCSASGFTFSGYGLSWVRQAPGKGLEWVAMISSGGSYTYYADSVKGRFAISRDNAKNTLFLQMDSLRPEDTGVYFCARHGDDPAWFAYWGQGTPVTVSS
# VL: DIQLTQSPSSLSASVGDRVTITCSVSSSISSNNLHWYQQKPGKAPKPWIYGTSNLASGVPSRFSGSGSGTDYTFTISSLQPEDIATYYCQQWSSYPHMYTFGQGTKVEIK
# notes: IgG
# B20: MYT4544 (antibody, V domains shown)
# VH: EVQLVESGGGVVQPGRSLRLSCSASGFTFSGYGLSWVRQAPGKGLEWVAMISSGGSYTYYADSVKGRFAISRDNAKNTLFLQMDSLRPEDTGVYFCARHGDDPAWFAYWGQGTPVTVSS
# VL: DIQLTQSPSSLSASVGDRVTITCSVSSSISSNNLHWYQQKPGKAPKPWIYGTSNLASGVPSRFSGSGSGTDYTFTISSLQPEDIATYYCQQWSSYPYHYTFGQGTKVEIK
# notes: IgG
# B21: MYT4536 (antibody, V domains shown)
# VH: EVQLVESGGGVVQPGRSLRLSCSASGFTFSGYGLSWVRQAPGKGLEWVAMISSGGSYTYYADSVKGRFAISRDNAKNTLFLQMDSLRPEDTGVYFCARHGDDPAWFAYWGQGTPVTVSS
# VL: DIQLTQSPSSLSASVGDRVTITCSVSSSISSNNLHWYQQKPGKAPKPWIYGTSNLASGVPSRFSGSGSGTDYTFTISSLQPEDIATYYCHQWSSYPYMYTFGQGTKVEIK
# notes: IgG
# B22: MYT4537 (antibody, V domains shown)
# VH: EVQLVESGGGVVQPGRSLRLSCSASGFTFSGYGLSWVRQAPGKGLEWVAMISSGGSYTYYADSVKGRFAISRDNAKNTLFLQMDSLRPEDTGVYFCARHGDDPAWFAYWGQGTPVTVSS
# VL: DIQLTQSPSSLSASVGDRVTITCSVSSSISSNNLHWYQQKPGKAPKPWIYGTSNLASGVPSRFSGSGSGTDYTFTISSLQPEDIATYYCQHWSSYPYMYTFGQGTKVEIK
# notes: IgG
# B23: MYT4546 (antibody, V domains shown)
# VH: EVQLVESGGGVVQPGRSLRLSCSASGFTFSGYGLSWVRQAPGKGLEWVAMISSGGSYTYYADSVKGRFAISRDNAKNTLFLQMDSLRPEDTGVYFCARHGDDPAWFAYWGQGTPVTVSS
# VL: DIQLTQSPSSLSASVGDRVTITCSVSSSISSNNLHWYQQKPGKAPKPWIYGTSNLASGVPSRFSGSGSGTDYTFTISSLQPEDIATYYCQQWSSYPYMYHFGQGTKVEIK
# notes: IgG
# Biological target: T1, FOLR1 (R&D Systems, Cat #5646-FR) (human, UniProt P15328 25-233)
# T1 construct: Bought soluble protein; also called Folate Receptor 1
# Assay: BLI, IgG on anti-human Fc sensor
# T1 sequence (P15328 25-233 limits assumed): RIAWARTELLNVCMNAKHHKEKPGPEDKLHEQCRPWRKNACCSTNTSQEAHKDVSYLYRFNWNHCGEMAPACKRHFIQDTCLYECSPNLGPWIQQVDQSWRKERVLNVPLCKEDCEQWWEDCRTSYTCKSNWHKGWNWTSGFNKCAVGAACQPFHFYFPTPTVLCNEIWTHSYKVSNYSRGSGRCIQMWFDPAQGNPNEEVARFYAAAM
row,binding result,Binder
1,no binding (tested: 50 nM),B1
2,no binding (tested: 50 nM),B2
3,no binding (tested: 50 nM),B3
4,no binding (tested: 50 nM),B4
5,no binding (tested: 50 nM),B5
6,no binding (tested: 50 nM),B6
7,no binding (tested: 50 nM),B7
8,no binding (tested: 50 nM),B8

# Biological target: T1, FOLR1 (R&D Systems, Cat #5646-FR)
# Assay: BLI, IgG on anti-human Fc sensor, 50 nM FOLR1
row,binding result,Binder
1,binds,B9
2,binds,B10
3,binds,B11
4,binds,B12
5,binds,B13
6,binds,B14
7,binds,B15
8,binds,B16
9,binds,B17
10,binds,B18
11,binds,B19
12,binds,B20
13,binds,B21
14,binds,B22
15,binds,B23
